Measured values published in article PMC5525146.

Target: Actin from rabbit muscle (rabbit) (UniProt P68135)
Test: co-sedimentation

For “Palld-Ig3 K38/51A double mutant (domain or fragment)”, the percent of protein co-sedimented with F-actin at saturation was 20 to 22%.
